Assay results reported in publication PMC12122975, “Structures of the Escherichia coli type 1 pilus during pilus rod assembly and after assembly termination” (Nature Communications, 2025).

B2: FimI, assembly terminator subunit of the type 1 pilus (natural protein)
chain: GNKWNTTLPGGNMQFQGVIIAETCRIEAGDKQMTVNMGQISSNRFHAVGEDSAPVPFVIHLRECSTVVSERVGVAFHGVADGKNPDVLSVGEGPGIATNIGVALFDDEGNLVPINRPPANWKRLYSGSTSLHFIAKYRATGRRVTGGIANAQAWFSLTYQ
B3: FimCHis, His-tagged type 1 pilus assembly chaperone FimC (natural protein)
chain: GVALGATRVIYPAGQKQEQLAVTNNDENSTYLIQSWVENADGVKDGRFIVTPPLFAMKGKKENTLRILDATNNQLPQDRESLFWMNVKAIPSMDKSKLTENTLQLAIISRIKLYYRPAKLALPPDQAAEKLRFRRSANSLTLINPTPYYLTVTELNAGTRVLENALVPPMGESTVKLPSDAGSNITYRTINDYGALTPKMTGVME
notes: source: E. coli BL21(DE3) (pFimCHis-cyt), purified (HisTrap, Source 30S); also co-expressed with FimD and FimH in E. coli Tuner (pETS1001) and purified as FimDCH
B4: FimC, type 1 pilus assembly chaperone (untagged) (natural protein)
chain: GVALGATRVIYPAGQKQEQLAVTNNDENSTYLIQSWVENADGVKDGRFIVTPPLFAMKGKKENTLRILDATNNQLPQDRESLFWMNVKAIPSMDKSKLTENTLQLAIISRIKLYYRPAKLALPPDQAAEKLRFRRSANSLTLINPTPYYLTVTELNAGTRVLENALVPPMGESTVKLPSDAGSNITYRTINDYGALTPKMTGVME
notes: source: E. coli BL21(DE3) (pFimC-cyt), purified (Q Sepharose, Source 30S, Phenyl Sepharose); also co-expressed with FimF or FimG in E. coli HM125 and purified from periplasmic extract as FimFC or FimGC

Key:
Assay in all cases: cryo-EM structure
[1] = target: B2; conditions: both partners purified
[2] = target: B4; conditions: both partners purified
[3] = target: T1, FimD, type 1 pilus assembly platform (usher) (E. coli, UniProt P30130 46-878); conditions: both partners purified
T1 sequence: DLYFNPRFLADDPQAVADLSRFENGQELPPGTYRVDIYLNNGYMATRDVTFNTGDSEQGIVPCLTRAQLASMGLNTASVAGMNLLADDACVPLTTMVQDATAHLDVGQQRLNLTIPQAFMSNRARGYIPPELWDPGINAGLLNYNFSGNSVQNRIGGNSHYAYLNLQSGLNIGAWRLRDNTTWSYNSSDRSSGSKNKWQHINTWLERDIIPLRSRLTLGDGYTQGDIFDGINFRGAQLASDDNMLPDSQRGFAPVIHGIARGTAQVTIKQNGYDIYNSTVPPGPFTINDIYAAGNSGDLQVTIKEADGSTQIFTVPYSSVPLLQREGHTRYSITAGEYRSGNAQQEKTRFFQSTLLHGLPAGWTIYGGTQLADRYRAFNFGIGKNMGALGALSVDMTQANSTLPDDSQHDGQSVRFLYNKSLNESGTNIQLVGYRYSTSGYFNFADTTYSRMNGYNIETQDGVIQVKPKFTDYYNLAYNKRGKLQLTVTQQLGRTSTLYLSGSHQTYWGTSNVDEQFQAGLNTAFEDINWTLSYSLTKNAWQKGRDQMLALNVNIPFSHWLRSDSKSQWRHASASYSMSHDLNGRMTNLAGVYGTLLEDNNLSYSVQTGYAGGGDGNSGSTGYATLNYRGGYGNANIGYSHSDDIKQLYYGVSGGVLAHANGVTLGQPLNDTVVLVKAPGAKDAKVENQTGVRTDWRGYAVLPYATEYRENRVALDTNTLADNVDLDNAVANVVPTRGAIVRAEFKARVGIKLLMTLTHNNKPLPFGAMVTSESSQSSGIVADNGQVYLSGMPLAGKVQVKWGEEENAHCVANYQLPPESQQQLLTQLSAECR

cryo-EM structure = target: the molecule itself
[4] = target: B3; conditions: both partners purified

B1: FimA, main subunit of the type 1 pilus rod (natural protein)
chain: AATTVNGGTVHFKGEVVNAACAVDAGSVDQTVQLGQVRTASLAQEGATSSAVGFNIQLNDCDTNVASKAAVAFLGTAIDAGHTNVLALQSSAAGSATNVGVQILDRTGAALTLDGATFSSETTLNNGTNTIPFQARYFATGAATPGAANADATFKVQYQ
notes: also called FimAn; FimAn-1
B1: binds [1]; binds [2]; binds [3]. B1: binds (cryo-EM structure); binds [4].

B2: binds [3]; binds (cryo-EM structure); binds [4].

B3: binds [3].

B4: binds [3].
